Test [1] relates to mouse 3T3-L1 fibroblasts. In words: Gene expression in 3T3-L1 fibroblasts (q-PCR). Particulars: dose-response. Format: cell-based. The method, then:
3T3-L1 cells (a murine fibroblast cell line) were split onto 12-well plates and grown to confluence before inducing differentiation by treatment with 86 nM insulin, 0.1 μM dexamethasone, and 250 μM methyl isobutylxanthine. Two days after induction, cells were switched to an inducing medium in the presence of recombinant RUCILPs, or commercial recombinant irisin (Sigma, #SRP8039-10UG and Phoenix pharmaceuticals, #067-29A), or phosphate buffered saline (PBS) for two days. Subsequently, cells were maintained in 86 nM insulin in the presence of indicated concentrations of recombinant RUCILPs, 21-AABP1, commercial recombinant irisin, or PBS for four days with medium change every other day for 6 days. Cells were then harvested for q-PCR analysis as described in standard protocol for gene expression analysis.
Total RNA from cells or tissues was extracted according to the instructions provided by manufacturer of RNeasy mini kit (Qiagen) using QIAzol lysis reagent (Qiagen), followed by measurements of RNA purities and concentrations by NanoDrop 2000 spectrophotometer (Thermo Scientific). A total of 1 μg of RNA was used for the reverse transcription to cDNA using the iScript™ Select cDNA Synthesis Kit (Bio-Rad Laboratories). The samples were subjected to real-time PCR using the LC480 system (Roche Diagnostics) after premixing with Precision®PLUS Master Mix (Primer Design). For each indicated gene, samples were run in duplicate in a 384-well plate and ΔΔCt method was used for quantifying the expressions after normalization to the housekeeping Rpl36 or GAPDH gene.
Firstly, we tested the dose-response effects of RUCILPs on gene expression in mouse fibroblasts (3T3-L1), mouse […] (MLO-Y4), and mouse myoblasts (C2C12). To estimate effect on adipocyte browning, we measured expression of Ucp1, Prdm16, Pgc1a, Dio2 and Cox2, and expression of AdipoQ was measured as a marker of white adipocytes. As a marker of bone formation, we measured expression of Sclerostin; and markers of myotube formation included expression of Heyl, Sox3, and Stat3.

Test [2] concerns MLO-Y4 (murine long bone osteocyte-Y4) cell line. In words: Sclerostin mRNA expression in MLO-Y4 cells. Particulars: for sclerostin expression levels: 150 nM, 24 h. Format: cell-based, mouse. The method, then:
FIG. 11. […] The cells were incubated with FreeStyle293 medium for 4 hr and treated for 16 hr with indicated concentrations of RUCILP2 or irisin (Upper panel), with the addition at pretreatment with vehicle (phosphate-buffered saline) or 10 μM of integrin inhibitor cRGDyK for 10 min (Lower panel). Data are represented as mean±SEM, n=3 wells/group. Significant differences between two groups were evaluated using a two-tailed, unpaired Student's t test. Upper panel, *, p<0.05, **, p<0.01, #, p<0.05, ##, p<0.01, when compared with the blank group. Lower panel, *, p<0.05, when compared with the vehicle group.
MLO-Y4 cells were donated by Prof Moustapha Kassem from the University of Southern Denmark. The cells were seeded on type I collagen-coated 6-well plates under Minimum Essential Medium (α-MEM from Fisher Scientific, #15430584), supplemented with 2.5% Fetal Bovine Serum (FBS from Fisher Scientific, #11550356), 2.5% calf serum (Hyclone, SH30072.03), and 1% Penicillin-Streptomycin (Fisher Scientific, #11548876). Cell cultures were maintained in a humidified chamber with 5% CO2 at 37° C., and culture media were changed every 2-3 days.
At 60% confluence, medium was switched to FreeStyle293 Expression medium after washing with warm PBS. After 4 hours incubation, the cells were treated with recombinant RUCILP2 or commercial recombinant irisin (Sigma, #SRP8039-10UG and Phoenix pharmaceuticals, #067-29A) or saline for 24 h. For integrin inhibitor treatment, cells were treated with 10 μM of CycloRGDyK (Selleckchem, #S7844) for 10 minutes and washed with PBS before treated with recombinant RUCILP2 or commercial recombinant irisin or saline. After treatments, MLO-Y4 cells were harvested for qRT-PCR analysis of the mRNA level of sclerostin as described in gene expression analysis. […]

Test [3] can be described thus: Insulin biosynthesis, summarised in Example 6. It counts as cell-based.
For test [4], the system named is inguinal fat. Kind of test: Daily intraperitoneal injection of RUCILP2 into chow-fed mice, gene expression in inguinal fat. Format: in vivo, mouse. Particulars: 1 mg/kg i.p. daily, 7 days, normal chow. The method, then: FIG. 17. […] No effects on expression of marker genes for lipolysis. Recombinant RUCILP2 was daily injected intraperitoneal at a concentration of 1 mg/kg into 9-week-old wild type C57BL/6N mice for one week. The mRNA levels of indicated genes were analyzed by qRT-PCR. Data were expressed as mean±SEM, *, p<0.05; **, p<0.01; ***, p<0.001, when compared with phosphate-buffered saline (PBS) group, n=9 animals/group.
Mice (20 male wild type C57BL/6N, 8 weeks of age, Janvier) were single-housed at 23±1° C. on a 12-hour light/12-hour dark cycle with access to food and water ad libitum. After 7 days of acclimatization on a standard chow diet (Altromin 1328 diet contains 11% of fat, 24% of protein, and 65% of carbohydrates. This diet is a cereal-based (soy, wheat, corn) fixed formula which is free of alfalfa and fish/animal meal and deficient in nitrosamines) to avoid stress, the mice received daily intraperitoneal injection of 1 mg/kg recombinant RUCILP2, and saline, respectively, for 7 days. All animals were then sacrificed, and subcutaneous fat pads and liver tissue were collected. The mRNA levels of thermogenic genes including Ucp1, Elovl3, Cidea, and Prdm16 as well as lipogenic genes including Acaca and Fasn in inguinal fat were analyzed by qRT-PCR as described below.
RNA extraction and real-time PCR analysis: Total RNA was extracted from tissues using Trizol reagent (Invitrogen) according to the manufacturer's instructions, followed by concentration measurement. 1 μg RNA was transcribed to cDNA using the Reverse Transcription System (Promega). Real-time PCR was performed using the LC480 detection system (Roche Diagnostics) and SYBR Green I Supermix (Takara). Samples were run in duplicate in a single 384-well reaction plate. Data were normalized to the housekeeping Rp136, TBP or GAPDH genes and analyzed according to ΔΔCT method.

2 molecules from US20240336661A1, “PEPTIDES DERIVED FROM RUMINOCOCCUS TORQUES” (University of Copenhagen, priority 2021, published 2024) can be followed below.

B1: RUCILP1: 88 amino acid FNIII domain polypeptide of RUMTOR_00181 from Ruminococcus torques (protein)
chain: APVDVKVSEVTETSAKVSWKNAADGKEAAGYNVYVDGTKVNEELIAETTYNVSSLKDGTTYSVEVTAVDAAGEESAKSEKVEFTTVKK
modifications: Ruminococcus torques
notes: 88 amino acid FNIII domain polypeptide of RUMTOR_00181 from Ruminococcus torques
Take B1: in test [1], the Adiponectin expression entry was “down-regulating” and the “markers of adipocyte browning (Ucp1, Prdm16, Pgc1a, Dio2, Cox2)” value is recorded as “up-regulate”. For the same molecule, the sclerostin expression levels result in test [2] is recorded as “increase”.

B2: RUCILP2: 87 amino acid irisin-like polypeptide cleaved from the Ruminococcus torques FNDC5-like protein RUMTOR_00181; recombinant, 6-His-tagged from E. coli (protein)
chain: APVDVKVSEITETSAKASWKNAADGKEAAGYNVYVDGVKLNKELLTEASCGLTNLKAETTYFVEVTAVDAAGNESVKSEKVTFKTLK
modifications: 6-His tag; Ruminococcus torques
notes: 87 amino acid irisin-like polypeptide cleaved from the Ruminococcus torques FNDC5-like protein RUMTOR_00181; recombinant, 6-His-tagged from E. coli
In the case of B2, in test [3], the insulin biosynthesis result is recorded as “stimulates”. In test [1], the Adiponectin expression entry is recorded as “down-regulating” and the “markers of adipocyte browning (Ucp1, Prdm16, Pgc1a, Dio2, Cox2)” value was “up-regulate”. Also, the sclerostin expression levels result in test [2] is “increase”. The sclerostin expression result in test [2] (MLO-Y4 cells, treated 16 hr) is “stimulates sclerostin expression”. Also, in test [4], the “expression of a gene involved in lipogenesis” value was “reduces expression”, the “expression of genes involved in thermogenesis” value is listed as “induces expression” and the “expression of marker genes for lipolysis” value was “No effects”.
